In patent US20220074941A1, “HSP90 COMBINATION THERAPY” (Sloan-Kettering Institute for Cancer Research, priority 2011, published 2022):

B1: CT45A5 (protein, UniProt P0DMU8 1-189, looked up)
Cancer/testis antigen family …: MTDKTEKVAVDPETVFKRPRECDSPSYQKRQRMALLARKQGAGDSLIAGSAMSKEKKLMTGHAIPPSQLDSQIDDFTGFSKDGMMQKPGSNAPVGGNVTSSFSGDDLECRETASSPKSQREINADIKRKLVKELRCVGQKYEKIFEMLEGVQGPTAVRKRFFESIIKEAARCMRRDFVKHLKKKLKRMI
B2: ZBED1 (protein, UniProt O96006 1-694, looked up)
E3 SUMO-protein ligase ZBED1: MENKSLESSQTDLKLVAHPRAKSKVWKYFGFDTNAEGCILQWKKIYCRICMAQIAYSGNTSNLSYHLEKNHPEEFCEFVKSNTEQMREAFATAFSKLKPESSQQPGQDALAVKAGHGYDSKKQQELTAAVLGLICEGLYPASIVDEPTFKVLLKTADPRYELPSRKYISTKAIPEKYGAVREVILKELAEATWCGISTDMWRSENQNRAYVTLAAHFLGLGAPNCLSMGSRCLKTFEVPEENTAETITRVLYEVFIEWGISAKVFGATTNYGKDIVKACSLLDVAVHMPCLGHTFNAGIQQAFQLPKLGALLSRCRKLVEYFQQSAVAMYMLYEKQKQQNVAHCMLVSNRVSWWGSTLAMLQRLKEQQFVIAGVLVEDSNNHHLMLEASEWATIEGLVELLQPFKQVAEMLSASRYPTISMVKPLLHMLLNTTLNIKETDSKELSMAKEVIAKELSKTYQETPEIDMFLNVATFLDPRYKRLPFLSAFERQQVENRVVEEAKGLLDKVKDGGYRPAEDKIFPVPEEPPVKKLMRTSTPPPASVINNMLAEIFCQTGGVEDQEEWHAQVVEELSNFKSQKVLGLNEDPLKWWSDRLALFPLLPKVLQKYWCVTATRVAPERLFGSAANVVSAKRNRLAPAHVDEQVFLYENARSGAEAEPEDQDEGEWGLDQEQVFSLGDGVSGGFFGIRDSSFL
B3: MALT1 (protein, UniProt Q9UDY8 2-824, looked up)
Mucosa-associated lymphoid …: SLLGDPLQALPPSAAPTGPLLAPPAGATLNRLREPLLRRLSELLDQAPEGRGWRRLAELAGSRGRLRLSCLDLEQCSLKVLEPEGSPSLCLLKLMGEKGCTVTELSDFLQAMEHTEVLQLLSPPGIKITVNPESKAVLAGQFVKLCCRATGHPFVQYQWFKMNKEIPNGNTSELIFNAVHVKDAGFYVCRVNNNFTFEFSQWSQLDVCDIPESFQRSVDGVSESKLQICVEPTSQKLMPGSTLVLQCVAVGSPIPHYQWFKNELPLTHETKKLYMVPYVDLEHQGTYWCHVYNDRDSQDSKKVEIIIGRTDEAVECTEDELNNLGHPDNKEQTTDQPLAKDKVALLIGNMNYREHPKLKAPLVDVYELTNLLRQLDFKVVSLLDLTEYEMRNAVDEFLLLLDKGVYGLLYYAGHGYENFGNSFMVPVDAPNPYRSENCLCVQNILKLMQEKETGLNVFLLDMCRKRNDYDDTIPILDALKVTANIVFGYATCQGAEAFEIQHSGLANGIFMKFLKDRLLEDKKITVLLDEVAEDMGKCHLTKGKQALEIRSSLSEKRALTDPIQGTEYSAESLVRNLQWAKAHELPESMCLKFDCGVQIQLGFAAEFSNVMIIYTSIVYKPPEIIMCDAYVTDFPLDLDIDPKDANKGTPEETGSYLVSKDLPKHCLYTRLSSLQKLKEHLVFTVCLSYQYSGLEDTVEDKQEVNVGKPLIAKLDMHRGLGRKTCFQTCLMSNGPYQSSAATSGGAGHYHSLQDPFHGVYHSHPGNPSNVTPADSCHCSRTPDAFISSFAHHASCHFSRSNVPVETTDEIPFSFSDRLRISEK
B4: PRCC (protein, UniProt Q92733 1-491, looked up)
Proline-rich protein PRCC: MSLVAYASSDESEPDEAEPEPEEEEAVAPTSGPALGGLFASLPAPKGPALLPPPPQMLAPAFPPPLLLPPPTGDPRLQPPPPLPFGLGGFPPPPGVSPAEAAGVGEGLGLGLPSPRGPGLNLPPPIGGAGPPLGLPKPKKRKEPVKIAAPELHKGDSDSEEDEPTKKKTILQGSSEGTGLSALLPQPKNLTVKETNRLLLPHAFSRKPSDGSPDTKPSRLASKTKTSSLAPVVGTTTTTPSPSAIKAAAKSAALQVTKQITQEEDDSDEEVAPENFFSLPEKAEPPGVEPYPYPIPTVPEELPPGTEPEPAFQDDAANAPLEFKMAAGSSGAPWMPKPGDDYSYNQFSTYGDANAAGAYYQDYYSGGYYPAQDPALVPPQEIAPDASFIDDEAFKRLQGKRNRGREEINFVEIKGDDQLSGAQQWMTKSLTEEKTMKSFSKKKGEQPTGQQRRKHQITYLIHQAKERELELKNTWSENKLSRRQTQAKYGF
B5: PSD4 (protein, UniProt Q8NDX1 1-1056, looked up)
PH and SEC7 domain-containing …: MMGDYRLPDHPQPMEILNLYLGDSLEPHPGECPRETCSHEDPPEPFEEQTWATDPPEPTRQNVPPWGSGVELTHLGSWVHQDGLEPCQEQTRATDPPESTRQDAPPWGSGVELTHLGSPSAQREHRQNTASPGSPVNSHLPGSPKQNRSTSTQVVFWAGILQAQMCVLDLEEELEKTEGLKAGLKCCLPTPPVDLPGDTGLHSSPPENEDSGEDSSEPEGEGQAWLREGTPDSSPQWGAEEESMFFSNPLFLASPCSENSASGECFSWGASDSHAGVRTGPESPATLEPPLPEDTVLWELESEPDLGDGAAISGHCTPPFPVPIYKPHSICWASVAAAEGAPAAPPGHGESEGDRLGPAPSAAPCVDEALTWESGCVGSDLGPAAHPVQPWASLSPEGWQRGGPFWPQVTLNSQDRDEREGGHPQESLPCTLAPCPWRSPASSPEPSSPESESRGPGPRPSPASSQEGSPQLQHHSSGILPKWTLDASQSSLLETDGEQPSSLKKKEAGEAPKPGEEVKSEGTARPAETGDVQPDIHLTSAEHENLRTPMNSSWLPGSPMPQAQSPEEGQRPPAGDKLANGVRNNKVAWNLASRLYRLEGFRKSEVAAYLQKNNDFSRAVAEEYLSFFQFGGQSLDRALRSFLQALVLSGETQERERILYQFSRRFHHCNPGIFPSVDSVHTLTCAIMLLNTDLHGQNIGKSMSCQEFITNLNGLRDGGNFPKELLKALYWSIRSEKLEWAVDEEDTARPEKAQPSLPAGKMSKPFLQLAQDPTVPTYKQGILARKMHQDADGKKTPWGKRGWKMFHTLLRGMVLYFLKQGEDHCLEGESLVGQMVDEPVGVHHSLATPATHYTKKPHVFQLRTADWRLYLFQAPTAKEMSSWIARINLAAATHSAPPFPAAVGSQRRFVRPILPVGPAQSSLEEQHRSHENCLDAAADDLLDLQRNLPERRGRGRELEEHRLRKEYLEYEKTRYETYVQLLVARLHCPSDALDLWEEQLGREAGGTREPKLSLKKSHSSPSLHQDEAPTTAKVKRNISERRTYRKIIPKRNRNQL
B6: WASF2 (protein, UniProt Q9Y6W5 1-498, looked up)
Actin-binding protein WASF2: MPLVTRNIEPRHLCRQTLPSVRSELECVTNITLANVIRQLGSLSKYAEDIFGELFTQANTFASRVSSLAERVDRLQVKVTQLDPKEEEVSLQGINTRKAFRSSTIQDQKLFDRNSLPVPVLETYNTCDTPPPLNNLTPYRDDGKEALKFYTDPSYFFDLWKEKMLQDTKDIMKEKRKHRKEKKDNPNRGNVNPRKIKTRKEEWEKMKMGQEFVESKEKLGTSGYPPTLVYQNGSIGCVENVDASSYPPPPQSDSASSPSPSFSEDNLPPPPAEFSYPVDNQRGSGLAGPKRSSVVSPSHPPPAPPLGSPPGPKPGFAPPPAPPPPPPPMIGIPPPPPPVGFGSPGTPPPPSPPSFPPHPDFAAPPPPPPPPAADYPTLPPPPLSQPTGGAPPPPPPPPPPGPPPPPFTGADGQPAIPPPLSDTTKPKSSLPAVSDARSDLLSAIRQGFQLRRVEEQREQEKRDVVGNDVATILSRRIAVEYSDSEDDSSEFDEDDWSD

What was measured:
[1] = system: Hsp90 complexes in K562 cell extract; assay: Nano-LC-MS/MS of PU-beads pull-downs; format: binding; settings: protein identified in PU-beads pull-down of K562 cell extract, QSTAR-Elite QTof MS
Outline: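 Proteins were identified by data-dependent nano LC-MS/MS (QTof, ESI) and Mascot searching (p<0.05), then reported as spectral counts and coverage via Scaffold. Inputs were PU-bead versus control-bead pull-downs from lysate pre-cleared with control beads overnight at 4 °C, eluted by boiling in 2% SDS.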

[2] = system: Hsp90 complexes in Mia-PaCa-2 cell extract; assay: Nano-LC-MS/MS of PU-beads pull-downs; format: binding, human; settings: protein identified in PU-beads pull-down of Mia-PaCa-2 cell extract; QSTAR-Elite QTof MS
Outline: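 They came from PU-bead pull-downs of pre-cleared lysates (control beads, overnight, 4 °C), eluted by boiling in 2% SDS, gel-separated and run by data-dependent nano-ESI QTof MS/MS.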

Molecule | Number of Assigned Spectra, K562 Prep 1 [1] | Number of Assigned Spectra, K562 Prep 2 [1] | Number of Assigned Spectra, Mia-Paca 2 [2]
B1 | 2 | 0 | 0
B2 | 2 | 0 | 0
B3 | 0 | 0 | 2
B4 | 2 | 0 | 0
B5 | 2 | 0 | 0
B6 | 2 | 0 | 0
